Source: IntAct's records for PubMed 14504388

B1: Protein phosphatase 2C 77 (Arabidopsis thaliana (Mouse-ear cress)), O04719 (parent)
chain: MDEVSPAVAVPFRPFTDPHAGLRGYCNGESRVTLPESSCSGDGAMKDSSFEINTRQDSLTSSSSAMAGVDISAGDEINGSDEFDPRSMNQSEKKVLSRTESRSLFEFKCVPLYGVTSICGRRPEMEDSVSTIPRFLQVSSSSLLDGRVTNGFNPHLSAHFFGVYDGHGGSQVANYCRERMHLALTEEIVKEKPEFCDGDTWQEKWKKALFNSFMRVDSEIETVAHAPETVGSTSVVAVVFPTHIFVANCGDSRAVLCRGKTPLALSVDHKPDRDDEAARIEAAGGKVIRWNGARVFGVLAMSRSIGDRYLKPSVIPDPEVTSVRRVKEDDCLILASDGLWDVMTNEEVCDLARKRILLWHKKNAMAGEALLPAEKRGEGKDPAAMSAAEYLSKMALQKGSKDNISVVVVDLKGIRKFKSKSLN
partner: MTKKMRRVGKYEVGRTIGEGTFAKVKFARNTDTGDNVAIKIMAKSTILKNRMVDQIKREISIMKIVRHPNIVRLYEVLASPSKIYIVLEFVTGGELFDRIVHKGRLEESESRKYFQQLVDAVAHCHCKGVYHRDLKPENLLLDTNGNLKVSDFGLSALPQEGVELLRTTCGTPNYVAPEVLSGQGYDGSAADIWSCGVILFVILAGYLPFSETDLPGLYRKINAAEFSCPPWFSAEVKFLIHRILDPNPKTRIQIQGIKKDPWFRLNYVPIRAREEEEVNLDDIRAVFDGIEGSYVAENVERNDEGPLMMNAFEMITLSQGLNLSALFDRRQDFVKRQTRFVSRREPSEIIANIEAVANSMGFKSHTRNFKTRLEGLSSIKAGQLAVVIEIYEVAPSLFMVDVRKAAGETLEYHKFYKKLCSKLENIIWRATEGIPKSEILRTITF
B2: CBL-interacting serine/threonine-protein kinase 24 (Arabidopsis thaliana (Mouse-ear cress)), Q9LDI3 (parent)
chain: B1 partner

Variants of: B1
Conditions: with cipko_arath CIPK24, Q9LDI3

effect of a mutation on the interaction	Variant
decreasing interaction	G168D
decreasing interaction	G162D

Variants of: B2
Conditions: with ABI2, O04719

effect of a mutation on the interaction	Variant
decreasing interaction	R340A;F341A
